The values below come from PMC3504387 (Chemmedchem, 2012).

Where no end group is shown, it is not given here. The star is where a group is joined. Biotin = O=C1N[C@H]2[C@H](CS[C@H]2CCCCC(=O)*)N1; Ahx = NCCCCCC(=O)O

The target of assay [1] is T1, GST–PPARα fusion protein (purified ligand binding domain of PPARα).
T1 sequence (Q07869 whole entry, species assumed, looked up): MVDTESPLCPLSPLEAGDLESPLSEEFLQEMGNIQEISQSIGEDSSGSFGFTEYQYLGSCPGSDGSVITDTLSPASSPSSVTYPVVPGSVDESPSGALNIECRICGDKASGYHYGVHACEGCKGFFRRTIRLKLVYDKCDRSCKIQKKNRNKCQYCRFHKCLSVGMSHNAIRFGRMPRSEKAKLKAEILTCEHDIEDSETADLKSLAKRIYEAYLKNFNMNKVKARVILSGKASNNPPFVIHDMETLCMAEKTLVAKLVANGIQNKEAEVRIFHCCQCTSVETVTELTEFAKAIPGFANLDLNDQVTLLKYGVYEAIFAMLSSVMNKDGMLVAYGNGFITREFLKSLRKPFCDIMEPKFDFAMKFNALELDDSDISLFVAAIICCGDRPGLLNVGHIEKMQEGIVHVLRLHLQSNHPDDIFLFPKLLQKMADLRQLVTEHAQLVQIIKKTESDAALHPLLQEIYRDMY
Put plainly: FRET or BRET; homogeneous TR-FRET as a1, 12-concentration dose–response of muraglitazar; the EC50 is of the compound; delta ratio in % of the reference compound at 10 μM (RO4899100 for PPARα, edaglitazone for PPARγ).

The target in assay [2] is T2, GST–PPARγ fusion protein (purified ligand binding domain of PPARγ).
T2 chain: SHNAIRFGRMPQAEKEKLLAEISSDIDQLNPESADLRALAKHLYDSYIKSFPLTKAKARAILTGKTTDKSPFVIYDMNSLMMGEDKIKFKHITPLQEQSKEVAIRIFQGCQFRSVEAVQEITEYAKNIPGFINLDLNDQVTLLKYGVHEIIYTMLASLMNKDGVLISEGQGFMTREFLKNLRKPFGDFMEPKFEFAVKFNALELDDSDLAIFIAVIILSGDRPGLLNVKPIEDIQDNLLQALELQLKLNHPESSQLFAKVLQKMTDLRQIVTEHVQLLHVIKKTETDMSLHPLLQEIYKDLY
Nature of the assay: FRET or BRET; homogeneous TR-FRET as a1, 12-concentration dose–response of aleglitazar; the EC50 is of the compound; delta ratio in % of the reference compound at 10 μM (RO4899100 for PPARα, edaglitazone for PPARγ). The conditions noted are these: both partners purified. A general note: Bioluminescence resonance energy transfer reports proximity on the nanometre scale.

Assay [3] concerns the target T2, GST–PPARγ fusion protein (purified …). Nature of the assay: FRET or BRET; homogeneous TR-FRET as a1, 12-concentration dose–response of farglitazar; the EC50 is of the compound; delta ratio in % of the reference compound edaglitazone at 10 μM. The conditions noted are these: both partners purified.
In assay [4] the target is T1, GST–PPARα fusion protein (purified ligand binding domain of PPARα). Put plainly: FRET or BRET; homogeneous TR-FRET as a1, 12-concentration dose–response of tesaglitazar; the EC50 is of the compound; delta ratio in % of the reference compound at 10 μM (RO4899100 for PPARα, edaglitazone for PPARγ).
The target of assay [5] is T2, GST–PPARγ fusion protein (purified …). Nature of the assay: FRET or BRET; homogeneous TR-FRET as a1, 12-concentration dose–response of edaglitazone; the EC50 is of the compound; delta ratio in % of the reference compound at 10 μM (RO4899100 for PPARα, edaglitazone for PPARγ). The conditions noted are these: both partners purified.
In assay [6] the target is T1, GST–PPARα fusion protein (purified ligand binding domain of PPARα). The description is as above.
For assay [7], the target named is T2, GST–PPARγ fusion protein (purified …). Nature of the assay: FRET or BRET; homogeneous TR-FRET as a1, 12-concentration dose–response of rosiglitazone; the EC50 is of the compound; delta ratio in % of the reference compound at 10 μM (RO4899100 for PPARα, edaglitazone for PPARγ). Particulars: both partners purified.
For assay [8] the target is unchanged. Put plainly: FRET or BRET; homogeneous TR-FRET as a1, 12-concentration dose–response of pioglitazone; the EC50 is of the compound; delta ratio in % of the reference compound at 10 μM (RO4899100 for PPARα, edaglitazone for PPARγ). Particulars: both partners purified.
For assay [9] the target is unchanged. Nature of the assay: FRET or BRET; homogeneous TR-FRET as a1, 12-concentration dose–response of tesaglitazar; the EC50 is of the compound; delta ratio in % of the reference compound at 10 μM (RO4899100 for PPARα, edaglitazone for PPARγ). Particulars: both partners purified.
The target in assay [10] is T1, GST–PPARα fusion protein (purified ligand binding domain of PPARα). Nature of the assay: FRET or BRET; homogeneous TR-FRET as a1, 12-concentration dose–response of RO4899100; the EC50 is of the compound; delta ratio in % of the reference compound at 10 μM (RO4899100 for PPARα, edaglitazone for PPARγ).
Assay [11] deals with T2, GST–PPARγ fusion protein (purified …). Nature of the assay: FRET or BRET; homogeneous TR-FRET as a1, 12-concentration dose–response of muraglitazar; the EC50 is of the compound; delta ratio in % of the reference compound at 10 μM (RO4899100 for PPARα, edaglitazone for PPARγ). Particulars: both partners purified.
Assay [12] concerns the target T1, GST–PPARα fusion protein (purified ligand binding domain of PPARα). Nature of the assay: FRET or BRET; homogeneous TR-FRET as a1, 12-concentration dose–response of aleglitazar; the EC50 is of the compound; delta ratio in % of the reference compound at 10 μM (RO4899100 for PPARα, edaglitazone for PPARγ).
Assay [13] has the same target. Nature of the assay: FRET or BRET; homogeneous TR-FRET as a1, 12-concentration dose–response of fenofibric acid; the EC50 is of the compound; delta ratio in % of the reference compound RO4899100 at 10 μM.

B1: SMRT ID2 cofactor peptide (silencing mediator of retinoid and thyroid hormone receptors, interaction domain 2) (peptide)
peptide: {Biotin-Ahx}-AVQEHASTNMGLEAIIRKALMGKYD
notes: silencing mediator of retinoid and thyroid hormone receptors (SMRT), ID2, residues 2331-2355; also called SMRT2; source: synthetic peptide (Jerini or Biosynthan, Berlin)
Turning to B1, in [1], the EC50 of muraglitazar for displacement came out at 563 nM and the delta ratio with muraglitazar was -28%. For the same molecule, in assay [2], the “EC50 of aleglitazar for displacement” value is 14.4 nM. The “EC50 of farglitazar for displacement” value in assay [3] was found to be 11.6 nM. Besides, in assay [4], the EC50 of tesaglitazar for displacement was 1780 nM and the delta ratio with tesaglitazar is -26%. In addition, in assay [5], the “EC50 of edaglitazone for displacement” value came to 41.6 nM. In assay [6], the EC50 of edaglitazone for displacement worked out at 790 nM and the delta ratio with edaglitazone was -20%. The “EC50 of rosiglitazone for displacement” value in [7] is 333 nM. In addition, the “EC50 of pioglitazone for displacement” value in assay [8] is 3700 nM. In assay [9], the “EC50 of tesaglitazar for displacement” value was 346 nM. The EC50 of RO4899100 for displacement in [10] came to 108 nM. In addition, the “EC50 of muraglitazar for displacement” value in [11] amounted to 60.3 nM. In addition, in assay [12], the EC50 of aleglitazar for displacement amounted to 14.1 nM and the delta ratio with aleglitazar is -51%.

B2: RAC3_M3 cofactor peptide (receptor-associated co-activator 3, motif 3) (peptide)
peptide: {Biotin-Ahx}-PKKENNALLRYLLDRDDPSDV
notes: source: synthetic peptide (Jerini or Biosynthan, Berlin)
With B2, the EC50 of muraglitazar for recruitment in [1] came to 330 nM; in [11], 39.5 nM. Further, the delta ratio with muraglitazar in [1] was found to be 35%. In addition, the “EC50 of aleglitazar for recruitment” value in assay [2] turned out to be 9.5 nM; in assay [12], 4.4 nM. Also, the EC50 of tesaglitazar for recruitment was 941 nM in assay [4] and 233 nM in [9]. Moreover, the delta ratio with tesaglitazar in assay [4] is 60%. In addition, the “EC50 of edaglitazone for recruitment” value in [5] came to 33.1 nM; in assay [6], 1920 nM. Also, in assay [6], the delta ratio with edaglitazone came out at 24%. In addition, the “EC50 of rosiglitazone for recruitment” value in [7] is 271 nM. The “EC50 of pioglitazone for recruitment” value in assay [8] came to 1860 nM. The EC50 of RO4899100 for recruitment in assay [10] was found to be 25.9 nM. In addition, in assay [12], the delta ratio with aleglitazar was found to be 62%.

For the molecule {Biotin-Ahx}-STHGTSLKEKHKILHRLLQDS [TIF2_M2 cofactor peptide (transcriptional intermediary factor 2, motif 2)], in [1], the EC50 of muraglitazar for recruitment worked out at 34 nM and the delta ratio with muraglitazar is 33%. In [13], the EC50 of fenofibric acid for recruitment was found to be 5200 nM and the delta ratio with fenofibric acid was 44%. Also, in assay [4], the EC50 of tesaglitazar for recruitment was determined as 182 nM and the delta ratio with tesaglitazar came to 54%. For the same molecule, in assay [6], the EC50 of edaglitazone for recruitment amounted to 294 nM and the delta ratio with edaglitazone worked out at 21%. For the same molecule, in assay [10], the EC50 of RO4899100 for recruitment was 5.9 nM and the delta ratio with RO4899100 came to 100%. Also, in assay [12], the EC50 of aleglitazar for recruitment amounted to 1.6 nM and the delta ratio with aleglitazar was found to be 53%.

B3: TIF2_M1 cofactor peptide (transcriptional intermediary factor 2, motif 1) (peptide)
peptide: {Biotin-Ahx}-SRLHDSKGQTKLLQLLTTKSD
notes: transcriptional intermediary factor 2 (TIF2), motif 1, residues 630-650; source: synthetic peptide (Jerini or Biosynthan, Berlin)
Regarding B3, in assay [1], the EC50 of muraglitazar for recruitment came out at 96.5 nM and the delta ratio with muraglitazar turned out to be 31%. Further, the “EC50 of aleglitazar for recruitment” value in assay [2] worked out at 43.2 nM. Besides, in assay [13], the EC50 of fenofibric acid for recruitment turned out to be 2160 nM and the delta ratio with fenofibric acid came out at 34%. Besides, the “EC50 of farglitazar for recruitment” value in assay [3] was determined as 16.1 nM. Further, in assay [4], the EC50 of tesaglitazar for recruitment turned out to be 326 nM and the delta ratio with tesaglitazar worked out at 70%. Also, the “EC50 of edaglitazone for recruitment” value in assay [5] was 86.5 nM. In assay [6], the EC50 of edaglitazone for recruitment stood at 945 nM and the delta ratio with edaglitazone came to 26%. In addition, the “EC50 of rosiglitazone for recruitment” value in [7] was determined as 951 nM. The “EC50 of tesaglitazar for recruitment” value in assay [9] amounted to 274 nM. Further, the EC50 of RO4899100 for recruitment in assay [10] is 8.6 nM. In [11], the “EC50 of muraglitazar for recruitment” value was determined as 94.3 nM. Besides, in assay [12], the EC50 of aleglitazar for recruitment was determined as 2.1 nM and the delta ratio with aleglitazar was 53%.

For the molecule {Biotin-Ahx}-SPKKKENALLRYLLDKDDTK [TIF2_M3 cofactor peptide (transcriptional intermediary factor 2, motif 3)], in assay [1], the EC50 of muraglitazar for recruitment stood at 88.9 nM and the delta ratio with muraglitazar was determined as 29%. Besides, in assay [13], the EC50 of fenofibric acid for recruitment is 1290 nM and the delta ratio with fenofibric acid was 25%. Also, in assay [4], the EC50 of tesaglitazar for recruitment was 377 nM and the delta ratio with tesaglitazar came to 53%. In assay [6], the EC50 of edaglitazone for recruitment was 3670 nM and the delta ratio with edaglitazone was 32%. Further, in [10], the EC50 of RO4899100 for recruitment was 12.7 nM and the delta ratio with RO4899100 was determined as 100%. Moreover, in assay [12], the EC50 of aleglitazar for recruitment was determined as 2.3 nM and the delta ratio with aleglitazar is 56%.

B4: RAC3_M2 cofactor peptide (receptor-associated co-activator 3, motif 2) (peptide)
peptide: {Biotin-Ahx}-SNMHGSLLQEKHRILHKLLQNGNSP
notes: as for B2
In the case of B4, in assay [2], the “EC50 of aleglitazar for recruitment” value was found to be 7.4 nM. Moreover, in assay [3], the “EC50 of farglitazar for recruitment” value came out at 6.5 nM. Further, the “EC50 of edaglitazone for recruitment” value in assay [5] came to 22.7 nM. In addition, in assay [7], the “EC50 of rosiglitazone for recruitment” value amounted to 125 nM. Besides, the “EC50 of pioglitazone for recruitment” value in assay [8] came to 1070 nM. The “EC50 of tesaglitazar for recruitment” value in assay [9] was determined as 110 nM. Also, the “EC50 of muraglitazar for recruitment” value in [11] was determined as 16.5 nM.
